Laboratory results as given in the supplement of paper PMC9170038.

system: K4 kissing-loop RNA reporter; experiment: apparent KD of K4 kissing-loop reporter; higher = weaker reporter binding; settings: Eterna round: R107; input ligand: arginine 13.2 mM
Method: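 RNA-MaP round R107: designed RNA switches with theophylline, tryptophan, arginine or FMN aptamers are transcribed on-chip within common flanks. They are titrated with a labelled K4 kissing-loop RNA reporter in RNA-MaP buffer (100 mM Tris pH 7.5, 80 mM KCl, 4 mM MgCl2), without ligand or with the indicated ligand. Median apparent KD per design.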
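Also: bound reporter read as fluorescence of individual clusters on recovered sequencing chips by microscopy, with normalized cluster intensities fitted with a binding model.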

| Sequence | apparent KD of K4 kissing-loop reporter [nM] |
| --- | --- |
| AUGCGACGUGCGGCCGCCACUCGGAUGCGAGUGAUGUUCGCGGGACGGACGCAAGUCCGUCAUUCGAGGACCGGGCAUCGGUGUA [#2 Same State - Tryptophan B Attempt #2 (HarryS)] | 462 |
| GUUACGCAUGGAAGGAGCGCAGGCUCAACAAAUAGCUCAGUGAUGUUGAGCAAAUUAAAACUGCAGGUAGGUCGCCAUGUGUAAC [Ex Arginine B K4 22] | 399 |
| AAUGCAUAGUGAAGGAGCGCGAUAAGCAGUGAUGUUGCUUAGCUAUUAUUCAUUUUUUUAACGCAGGUAGGUCGCACUUUGCAUA [JR_ExcArginiB_Sub016] | 142 |
| CAAACGUGCGGUAGGUUCAAGCGCUGGGAAGGAGCGCAGAUGACUGCAGGUAGGUCGCCCAGUGAUGUUGGGCUUUCCACCUACG [Dilausma] | 123 |
| GGUUCCUCAGUGAUGUUGAGGUGACCUCGGCAGGAUAUAGGCAUUACUAGAAGGGCCAAAAGAAUCCUGUGCAGCAACACAGGGA [Usrasoza] | 238 |
| AGGAGCGUGCGAUGGAAAUCGCACGCUCCUCGAGGACCGGUACGGCCGCCACUCGCUCGCGCCGAGUGAUGUUCGGCCGGCGAAG [#2 Same State - Tryptophan A Attempt #16 (HarryS)] | 128 |

same assay, conditions: Eterna round: R107; input ligand: none

| Sequence | apparent KD of K4 kissing-loop reporter [nM] |
| --- | --- |
| AAAUUUAAUAUAUUUAAAUAAAUAUGUGAUACCAGACAUUUAUAAGUCCCUUGGCAGCACAAUGCAGUGAUGUUGCUUAUAAUAA [JR_SSTheophyA_Sub017] | 88.8 |
| GAUAAAUUGAUGCGUAGUGAUGCACGGGAAGGAGCGCGUUUUUUCGCAGGUAGGUCGCCCGACUGCGCGUUUCGAGUGAUGUUCG [5.)] | 193 |
| GCCGUAGAUUGAAGGAGCGUGGACCUAUCGCUUGAACAGUGAUGUUGUUUAUCUAGGGAGCCGCAGGUAGGUCGCAAUCUACGGC | 478 |
| UACGCUUACUUGCGCGGUCCGAUUAACGAUACCAGCGAAGAAGCCCGCCCUUGGCAGCGUUAUAGAGUGAUGUUCACGGAGAUUA [theeternabot_sameState_KL_Theo_A_12] | 989 |
| GAUAUAGUGAUGUUAUAUACUGAUAGACAACGAGGACCGGUACGGCCGCCACUCGAGAGGGUGAAAAUGGUGAUAAAAUAAUGAU [#03 K4 Tryptophan A Exclusion] | 381 |
| UGAUUUAACUGAAGGAGCGGCAAUUGAGAAGGAAAUAUAGUGAUGUUAUAUAAGAGAGAGAGCCAGGUAGGUCGCAGAGGGAGGA [ExArgB.G] | 152 |
| UAGUCCUAGUGAUCCUUAUCAAGUGGUGGGCGAGGACCGGUACGGCCGCCACUCGACUAUGCAGUGAUGUUGUAAUCCGGACAAU [Exclusion - Tryptophan A (Freestyle 12)] | 633 |
| AUGUCUUAUAAACUCGUGGUUUCGAUCGAUACCAGUAGCGAGAGUUACCCUUGGCAGCGACAUGAGUGAUGUUCAUGUACGAAGA [KL-XTheoA4] | 94.3 |
| UUUCUAUCGGGAAGGAGCGUGAAUGAUAAUGGAUAUAGUGAUGUUAUAUAUAAGAACGAAUCGCAGGUAGGUCGCCCGGAUGACU [SSArgB.R] | 323 |
| AAGCAGUCACUCGAAGCCAUCGAAGAUGGUCGAGGACCGGUACGGCCGCCACUCGGAGUGAUGUUCCGAAGACUGCAAAAUAAAA [#SwitchBubble 11] | 286 |
| UAGGCGGGAGAAGGAUAUCUGUGAAACCUGCUGCCCAAUAAGUGAUGUUUAUAAAGGAAGCGUCAUAGAGAAGGUCUAACAAGUA [theeternabot_sameState_KL_FMN_B_1] | 714 |
| AUACAGCGACGCGCUAGUGAUGUUAGCGAAGGAGCGACUCAUGAGUCAGGUAGGUCGCGCUAACGUGGUUACGAGAGUAACCAGU [Arg A Ex t1a] | 93.6 |
| CAUACGCAUGGAGGAUAUGAGAUUUCUCAUGUCAUUUAAUAUUCUCAGUGAUGUUGAGAAUUUGGCUCAGAAGGCCAUGUGUAUG [Ex FMN B 20] | 508 |
| AUUAAUAUCACGGCCGCCACUGAAUAUUGUUUUUAUAUUUAGAAAUCUUGCCAGUGAUGUUGGAUCAGGACCGGGUGAGUUUAUA [JR_SSTryptoB_Sub006] | 463 |
| CUAUGGAAACAUAGUAGUCGGGAAACCGAUACCAGUAUGGAAACAUACCCUUGGCAGCGGAAUGAUUAAACGGAGUGAUGUUCCG [Theophylline A K4 18] | 292 |
| UUUAUAUUCUGAGGAUAUCGUAUUAAUGAAGUGAUGUUUCAGUAUAUUCUAAUUAUAUAUAAUUUUCGAGAAGGCAGUAUUAUUU [JR_Nu3_SSFMNB_Sub028] | 246 |
| GGUUUAUAGGAGGAUACCAGUACGGAUAAAGUACAUUAAUAGUAGAGUGAUGUUCUAAAGUACCCUUGGCAGCUUAGAUUAAGUU [ExTheophylB.I] | 133 |
| UGAUACCAGACGGCCGCCACUCCCGCAGGUCAAAGACCUGCGAAGAAGGUUCUUCAGUGAUGUUGGAGGACCGGGUCUGGUAUCU [FiskerMod 22 - Jieux - Exclusion - Tryptophan B] | 207 |
| AAAUAAGCUCAUGAUACCAGCCAGUGAUGUUGGUUGGUCCACCGUGUCCGAACAUUAAGCGGCCCUUGGCAGCAUGAUGCGCGUA [Xearxea] | 90.1 |
| UGACAUUGCUCAGAUACCAGACUUGAGGAUCACCCAAGUGCCAAACGUACAAUAAUAAAAGUCCCUUGGCAGCUGAGCAAUGUCU [TheoBX 14] | 97.2 |
| AAGCAGUCACUCGAAACCAUCGAAGAUGGGCGAGGACCGGUACGGCCGCCACUCGGAGUGAUGUUCCGAAGACUGCAAAAUAAAA | 592 |
